Test results taken from patent publication US20050215629.

System: synthetic phosphotyrosine peptide Arg-Arg-Leu-Ile-Glu-Asp-Ala-Glu-Tyr-Ala-Ala-Arg-Gly, wherein the tyrosine is phosphorylated

Row | Substance | PTPase activity (malachite green, absorbance at 660 nm) | in vitro PTPase assay
1 | GST fusion protein of SHP-1 | 660 nm absorbance approximately 0.6 above background (0.03) | 
2 | GST fusion protein of SHP-1 catalytic domain (SHP-1cata) |  | the two proteins in their dephosphorylation of the phosphotyrosine peptide substrate in vitro
3 | GST fusion protein of mitogen-activated protein kinase phosphatase 1 (MKP1) | 660 nm absorbance approximately 0.6 above background (0.03) | 
4 | GST fusion protein of protein tyrosine phosphatase 1B (PTP1B) | 660 nm absorbance approximately 0.6 above background (0.03) | 
5 | GST fusion protein of SHP-2 | 660 nm absorbance approximately 0.6 above background (0.03) | 
